Changes are numbered by the printed parent chain.
B1: XENP31701 (bispecific antibody, part only; not given: anti-CD3 scFv-Fc arm, constant regions, V domains shown, not shown: another chain or arm of the molecule; a dimerising Fc or GST; small tags and cut ends)
VH: QVQLVQSGAEVKKPGASVKVSCKASGYTFTSYWMHWVRQAPGQGLEWMGMIHPNSDNTIYYEKFQGRVTMTVDKSISTAYMELSRLRSDDTAVYYCAIIITPVVPKFDYWGQGTLVTVSS
VL: DIVMTQSPDSLAVSLGERATINCKASHDVGTSVAWYQQKPGQSPKLLIYWASTRHTGVPDRFTGSGSGTDFTLTISSLQAEDVAVYFCQQYSSYPLTFGAGTKLEIK
B2: XENP32565 (bispecific antibody, part only; not given: anti-CD3 scFv-Fc arm, constant regions, V domains shown, not shown: another chain or arm of the molecule; a dimerising Fc or GST; small tags and cut ends)
VH: B1 VH
VL: B1 VL with H55E
B3: XENP32564 (bispecific antibody, part only; not given: anti-CD3 scFv-Fc arm, constant regions, V domains shown, not shown: another chain or arm of the molecule; a dimerising Fc or GST; small tags and cut ends)
VH: B1 VH
VL: B1 VL with V33L
B4: XENP32555 (bispecific antibody, part only; not given: anti-CD3 scFv-Fc arm, constant regions, V domains shown, not shown: another chain or arm of the molecule; a dimerising Fc or GST; small tags and cut ends)
VH: B1 VH with D56G
VL: B1 VL
B5: XENP32569 (bispecific antibody, part only; not given: anti-CD3 scFv-Fc arm, constant regions, V domains shown, not shown: another chain or arm of the molecule; a dimerising Fc or GST; small tags and cut ends)
VH: B1 VH with N54Q
VL: B1 VL with D28S
B6: XENP32557 (bispecific antibody, part only; not given: anti-CD3 scFv-Fc arm, constant regions, V domains shown, not shown: another chain or arm of the molecule; a dimerising Fc or GST; small tags and cut ends)
VH: B1 VH with T101S
VL: B1 VL
B7: XENP32551 (bispecific antibody, part only; not given: anti-CD3 scFv-Fc arm, constant regions, V domains shown, not shown: another chain or arm of the molecule; a dimerising Fc or GST; small tags and cut ends)
VH: B1 VH with W33Y
VL: B1 VL
B8: XENP32556 (bispecific antibody, part only; not given: anti-CD3 scFv-Fc arm, constant regions, V domains shown, not shown: another chain or arm of the molecule; a dimerising Fc or GST; small tags and cut ends)
VH: B1 VH with I98R
VL: B1 VL
B9: XENP32550 (bispecific antibody, part only; not given: anti-CD3 scFv-Fc arm, constant regions, V domains shown, not shown: another chain or arm of the molecule; a dimerising Fc or GST; small tags and cut ends)
VH: B1 VH with S31G
VL: B1 VL
B10: XENP32554 (bispecific antibody, part only; not given: anti-CD3 scFv-Fc arm, constant regions, V domains shown, not shown: another chain or arm of the molecule; a dimerising Fc or GST)
VH: B1 VH with N54Q
VL: B1 VL
B11: XENP32568 (bispecific antibody, part only; not given: anti-CD3 scFv-Fc arm, constant regions, V domains shown, not shown: another chain or arm of the molecule; a dimerising Fc or GST; small tags and cut ends)
VH: B1 VH
VL: B1 VL with Y94T
B12: XENP32559 (bispecific antibody, part only; not given: anti-CD3 scFv-Fc arm, constant regions, V domains shown, not shown: another chain or arm of the molecule; a dimerising Fc or GST; small tags and cut ends)
VH: B1 VH
VL: B1 VL with A25S
B13: XENP32558 (bispecific antibody, part only; not given: anti-CD3 scFv-Fc arm, constant regions, V domains shown, not shown: another chain or arm of the molecule; a dimerising Fc or GST; small tags and cut ends)
VH: B1 VH with K106R
VL: B1 VL
B14: XENP32566 (bispecific antibody, part only; not given: anti-CD3 scFv-Fc arm, constant regions, V domains shown, not shown: another chain or arm of the molecule; a dimerising Fc or GST; small tags and cut ends)
VH: B1 VH
VL: B1 VL with T56S
B15: XENP32570 (bispecific antibody, part only; not given: anti-CD3 scFv-Fc arm, constant regions, V domains shown, not shown: another chain or arm of the molecule; a dimerising Fc or GST; small tags and cut ends)
VH: B1 VH with D56G
VL: B1 VL with D28S
B16: XENP32553 (bispecific antibody, part only; not given: anti-CD3 scFv-Fc arm, constant regions, V domains shown, not shown: another chain or arm of the molecule; a dimerising Fc or GST; small tags and cut ends)
VH: B1 VH with H52N
VL: B1 VL
B17: XENP32560 (bispecific antibody, part only; not given: anti-CD3 scFv-Fc arm, constant regions, V domains shown, not shown: another chain or arm of the molecule; a dimerising Fc or GST; small tags and cut ends)
VH: B1 VH
VL: B1 VL with H27Q
B18: XENP32938 (bispecific antibody, part only; not given: anti-CD3 scFv-Fc arm, constant regions, V domains shown, not shown: another chain or arm of the molecule; a dimerising Fc or GST; small tags and cut ends)
VH: B1 VH with E62Y
VL: B1 VL with S92Y
B19: XENP32940 (bispecific antibody, part only; not given: anti-CD3 scFv-Fc arm, constant regions, V domains shown, not shown: another chain or arm of the molecule; a dimerising Fc or GST; small tags and cut ends)
VH: B1 VH with M50W
VL: B1 VL with Y94F
B20: XENP32939 (bispecific antibody, part only; not given: anti-CD3 scFv-Fc arm, constant regions, V domains shown, not shown: another chain or arm of the molecule; a dimerising Fc or GST; small tags and cut ends)
VH: B1 VH with M50W
VL: B1 VL with T31Q
B21: XENP32943 (bispecific antibody, part only; not given: anti-CD3 scFv-Fc arm, constant regions, V domains shown, not shown: another chain or arm of the molecule; a dimerising Fc or GST; small tags and cut ends)
VH: B1 VH with M50W
VL: B1 VL with Y94I

Each binder was assayed against cyno MSLN (Macaca fascicularis) (assay: BLI (Octet), bsAb in 1+1 Fab-scFv-Fc format).

Binder | Kd | Response | koff | kon
B1 | 0.0938 nM | 0.737 | 5.74e-05 s⁻¹ | 612000 M⁻¹ s⁻¹
B2 | 0.255 nM | 1 | 0.000151 s⁻¹ | 592000 M⁻¹ s⁻¹
B3 | 0.0297 nM | 0.849 | 2.01e-05 s⁻¹ | 676000 M⁻¹ s⁻¹
B4 | 0.603 nM | 1.11 | 0.000342 s⁻¹ | 566000 M⁻¹ s⁻¹
B5 | 0.189 nM | 0.867 | 0.000125 s⁻¹ | 660000 M⁻¹ s⁻¹
B6 | 0.62 nM | 1.09 | 0.000321 s⁻¹ | 518000 M⁻¹ s⁻¹
B7 | 1.66 nM | 1.1 | 0.000822 s⁻¹ | 495000 M⁻¹ s⁻¹
B8 | 0.395 nM | 1.07 | 0.000157 s⁻¹ | 399000 M⁻¹ s⁻¹
B9 | 0.254 nM | 0.891 | 0.000146 s⁻¹ | 576000 M⁻¹ s⁻¹
B10 | 0.414 nM | 1.03 | 0.00023 s⁻¹ | 555000 M⁻¹ s⁻¹
B11 |  | 0.0728 |  | 
B12 | 0.223 nM | 1.04 | 0.000128 s⁻¹ | 575000 M⁻¹ s⁻¹
B13 | 0.7 nM | 1.11 | 0.000166 s⁻¹ | 238000 M⁻¹ s⁻¹
B14 | 0.163 nM | 0.941 | 0.0001 s⁻¹ | 616000 M⁻¹ s⁻¹
B15 | 0.155 nM | 0.95 | 0.000105 s⁻¹ | 676000 M⁻¹ s⁻¹
B16 | 0.585 nM | 1.06 | 0.000337 s⁻¹ | 575000 M⁻¹ s⁻¹
B17 | 1.2 nM | 0.948 | 0.000762 s⁻¹ | 634000 M⁻¹ s⁻¹

These binders were tested against human mesothelin (MSLN) (human) (UniProt Q13421) (assay: BLI (Octet), bsAb in 1+1 Fab-scFv-Fc format).

Binder | Kd | Response | koff | kon
B1 | 0.0805 nM | 0.86 | 4.69e-05 s⁻¹ | 583000 M⁻¹ s⁻¹
B2 | 0.286 nM | 1.11 | 0.000169 s⁻¹ | 590000 M⁻¹ s⁻¹
B3 | 0.0861 nM | 0.952 | 5.68e-05 s⁻¹ | 660000 M⁻¹ s⁻¹
B4 | 0.684 nM | 1.23 | 0.000375 s⁻¹ | 549000 M⁻¹ s⁻¹
B5 | 0.135 nM | 0.978 | 9.35e-05 s⁻¹ | 693000 M⁻¹ s⁻¹
B6 | 0.721 nM | 1.15 | 0.000374 s⁻¹ | 519000 M⁻¹ s⁻¹
B7 | 1.6 nM | 1.19 | 0.000773 s⁻¹ | 483000 M⁻¹ s⁻¹
B8 | 0.469 nM | 1.18 | 0.000199 s⁻¹ | 425000 M⁻¹ s⁻¹
B9 | 0.601 nM | 1.02 | 0.000314 s⁻¹ | 522000 M⁻¹ s⁻¹
B10 | 0.483 nM | 1.13 | 0.000268 s⁻¹ | 555000 M⁻¹ s⁻¹
B11 |  | 0.107 |  | 
B12 | 0.283 nM | 1.11 | 0.000161 s⁻¹ | 569000 M⁻¹ s⁻¹
B13 | 0.795 nM | 1.17 | 0.000198 s⁻¹ | 249000 M⁻¹ s⁻¹
B14 | 0.18 nM | 1.05 | 0.000113 s⁻¹ | 627000 M⁻¹ s⁻¹
B15 | 0.103 nM | 0.981 | 7.35e-05 s⁻¹ | 717000 M⁻¹ s⁻¹
B16 | 0.687 nM | 1.16 | 0.00037 s⁻¹ | 539000 M⁻¹ s⁻¹
B17 | 0.633 nM | 1.03 | 0.000383 s⁻¹ | 605000 M⁻¹ s⁻¹

The binders below were run against human mesothelin (MSLN) (human) (UniProt Q13421) (assay: BLI (Octet), multiple concentrations, bsAb in 1+1 Fab-scFv-Fc format).

Binder | Kd | Response | koff | kon
B18 | 16.2 nM | 0.169 | 0.0103 s⁻¹ | 635000 M⁻¹ s⁻¹
B19 | 246 nM | 0.136 | 0.0816 s⁻¹ | 332000 M⁻¹ s⁻¹
B20 | 90.4 nM | 0.202 | 0.0383 s⁻¹ | 424000 M⁻¹ s⁻¹
B21 |  | 0.0022 |  | 
